B1: 单域抗体NBC5 (VHH)
VHH: QVKLEESGGGLVQAGGSLRLSCAASGDIDRNDVMHWYRQAPGKQRELVAWIANNGATNYADSVKGRFTISRDNAKNTVYLQMNSLKPEDTAVYYCNVRSLVRRSRDYWGQGTQVTVSS
B2: 单域抗体NBC4 (VHH)
VHH: HVQLVESGGGLVQAGGSLRLSCAVSGSIFSNDVMGWYRQAPGKQRELVAFITNGGVAHSKDPEKGRFTISRDNGKNTVYLQMNSLKPDDTAVYYCNVRSLVERSREYWGQGTQVTVSS
B3: 单域抗体NBC6 (VHH)
VHH: B2 VHH with H1Q, Q3K, V5E, G54E, E63V

Changes are numbered by the printed parent chain.

For this assay, the target named is T1, Human CEACAM6 Protein, Human, Recombinant (His Tag) (human, UniProt P40199 35-320, biotinylated in Example 6 (Bio-CEACAM6), site not stated).
T1 construct: Bought recombinant antigen; also called CEACAM6抗原; 人CEACAM6抗原
T1 sequence (looked up): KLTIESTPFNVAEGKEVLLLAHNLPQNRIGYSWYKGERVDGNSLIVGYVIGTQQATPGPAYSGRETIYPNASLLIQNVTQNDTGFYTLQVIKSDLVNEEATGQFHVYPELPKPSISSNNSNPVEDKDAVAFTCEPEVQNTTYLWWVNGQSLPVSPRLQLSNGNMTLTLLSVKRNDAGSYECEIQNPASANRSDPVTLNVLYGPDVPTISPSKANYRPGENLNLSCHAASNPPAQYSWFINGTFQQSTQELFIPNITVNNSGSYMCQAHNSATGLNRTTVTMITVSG
Description: phage ELISA, phage-displayed VHH supernatant on coated CEACAM6. A general note: An ELISA detects its analyte on a solid surface through an enzyme-linked reagent.
Take B1: the binding result is “binds”.

In the case of B2, the binding result is given as “binds”.

Take B3: the binding result is recorded as “binds”.
